Measurements published in PMC9352680, “A comprehensive thermodynamic model for RNA binding by the Saccharomyces cerevisiae Pumilio protein PUF4”.

Target: T1, PUF4 RNA-binding domain (Saccharomyces cerevisiae, UniProt P25339 537-888)
T1 sequence: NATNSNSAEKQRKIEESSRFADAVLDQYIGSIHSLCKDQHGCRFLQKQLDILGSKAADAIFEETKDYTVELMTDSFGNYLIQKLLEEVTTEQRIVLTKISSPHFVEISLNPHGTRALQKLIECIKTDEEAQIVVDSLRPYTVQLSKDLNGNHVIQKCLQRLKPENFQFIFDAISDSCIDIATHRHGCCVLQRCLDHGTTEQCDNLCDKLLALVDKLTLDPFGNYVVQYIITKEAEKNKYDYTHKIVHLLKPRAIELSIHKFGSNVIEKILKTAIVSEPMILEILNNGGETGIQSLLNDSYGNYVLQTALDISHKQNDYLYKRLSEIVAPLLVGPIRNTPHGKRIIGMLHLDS
Assay: Mg; RNA-MaP; 20 mM Na-HEPES pH 7.4, 30 mM KOAc, 0.75 mM MgCl2, 0.1% Tween-20, 5% glycerol, 0.1 mg/mL BSA, 2 mM DTT; 25 C; 0.0125-409.6 nM protein
Conditions: tags: N-His6-TEV cleaved; C-SNAP kept, Cy3B-labelled; label: tethered on chip by stalled RNA polymerase

B1: Ic_S2_P4E.1_K4.1_C4.1_H4.1_A4.1_[T5C]_[A6T]_F4.1_[T8G]_[A9C]_T4.1 (ssRNA)
RNA: UUUGAUUAAUAUGAUAUCGUUCUUUCUUGUACUUGCUUCUUUCUCGAUAUCAUAUUAAUCUUU
For B1, which Kd is on record?
The Kd was 365 nM.

B2: Ic_S2_P4E.1_K4.1_C4.1_H4.1_A4.1_[T5A]_[A6C]_[T7C]_F4.1_[T8C]_T4.1 (ssRNA)
RNA: UUUGAUUAAUAUGAUAUCGUUCUUUCUUGUAACCCAUUCUUUCUCGAUAUCAUAUUAAUCUUU
How did the Kd turn out when B2 was run?
Its Kd is 666 nM.

B3: Ic_S2_P4E.1_K4.1_C4.1_H4.1_A4.1_[T5A]_[A6C]_[T7G]_F4.1_T4.1 (ssRNA)
RNA: UUUGAUUAAUAUGAUAUCGUUCUUUCUUGUAACGUAUUCUUUCUCGAUAUCAUAUUAAUCUUU
How did the Kd turn out when B3 was run?
Its Kd is 11 nM.

B4: Ic_S2_P4E.1_K4.1_C4.1_H4.1_A4.1_[T5C]_[A6T]_F4.1_[T8C]_[A9G]_T4.1 (ssRNA)
RNA: UUUGAUUAAUAUGAUAUCGUUCUUUCUUGUACUUCGUUCUUUCUCGAUAUCAUAUUAAUCUUU
With B4 as the binder, how does the Kd read?
Its Kd is 110 nM.

B5: Ic_S2_P4E.1_K4.1_C4.1_H4.1_A4.1_[T5A]_[A6C]_[T7C]_F4.1_[A9C]_T4.1 (ssRNA)
RNA: UUUGAUUAAUAUGAUAUCGUUCUUUCUUGUAACCUCUUCUUUCUCGAUAUCAUAUUAAUCUUU
With B5 as the binder, how does the Kd read?
The Kd was 44.4 nM.

B6: Ic_S2_P4E.1_K4.1_C4.1_H4.1_A4.1_[T5A]_[A6C]_[T7A]_F4.1_[T8G]_[A9C]_T4.1 (ssRNA)
RNA: UUUGAUUAAUAUGAUAUCGUUCUUUCUUGUAACAGCUUCUUUCUCGAUAUCAUAUUAAUCUUU
For B6, which Kd is on record?
Its Kd is 777 nM.

B7: Ic_S2_P4E.1_K4.1_C4.1_H4.1_A4.1_[T5C]_[T7C]_F4.1_[A9T]_T4.1 (ssRNA)
RNA: UUUGAUUAAUAUGAUAUCGUUCUUUCUUGUACACUUUUCUUUCUCGAUAUCAUAUUAAUCUUU
For B7, which Kd is on record?
Its Kd is 2.92 nM.

B8: Ic_S2_P4E.1_K4.1_C4.1_H4.1_A4.1_[T5C]_[A6T]_F4.1_[A9C]_T4.1 (ssRNA)
RNA: UUUGAUUAAUAUGAUAUCGUUCUUUCUUGUACUUUCUUCUUUCUCGAUAUCAUAUUAAUCUUU
Which Kd does the source give for B8 here?
The Kd was 13.3 nM.

B9: Ic_S2_P4E.1_K4.1_C4.1_H4.1_A4.1_[T5C]_[T7C]_F4.1_[A9C]_T4.1 (ssRNA)
RNA: UUUGAUUAAUAUGAUAUCGUUCUUUCUUGUACACUCUUCUUUCUCGAUAUCAUAUUAAUCUUU
With B9 as the binder, how does the Kd read?
The Kd was 5.21 nM.

B10: Ic_S2_P4E.1_K4.1_C4.1_H4.1_A4.1_[T5C]_[T7A]_F4.1_[A9G]_T4.1 (ssRNA)
RNA: UUUGAUUAAUAUGAUAUCGUUCUUUCUUGUACAAUGUUCUUUCUCGAUAUCAUAUUAAUCUUU
For B10, which Kd is on record?
Its Kd is 7.25 nM.

B11: Ic_S2_P4E.1_K4.1_C4.1_H4.1_A4.1_[T5C]_[A6T]_F4.1_[T8C]_T4.1 (ssRNA)
RNA: UUUGAUUAAUAUGAUAUCGUUCUUUCUUGUACUUCAUUCUUUCUCGAUAUCAUAUUAAUCUUU
B11 was tested. Which Kd did it give?
Its Kd is 53.5 nM.

B12: Ic_S2_P4E.1_K4.1_C4.1_H4.1_A4.1_[T5C]_F4.1_[T8A]_[A9C]_T4.1 (ssRNA)
RNA: UUUGAUUAAUAUGAUAUCGUUCUUUCUUGUACAUACUUCUUUCUCGAUAUCAUAUUAAUCUUU
For B12, which Kd is on record?
Its Kd is 4.76 nM.

B13: Ic_S2_P4E.1_K4.1_C4.1_H4.1_A4.1_[T5C]_[A6T]_F4.1_[T8C]_[A9C]_T4.1 (ssRNA)
RNA: UUUGAUUAAUAUGAUAUCGUUCUUUCUUGUACUUCCUUCUUUCUCGAUAUCAUAUUAAUCUUU
Which Kd does the source give for B13 here?
The Kd was 102 nM.

B14: Ic_S2_P4E.1_K4.1_C4.1_H4.1_A4.1_[T5C]_[A6T]_F4.1_[A9G]_T4.1 (ssRNA)
RNA: UUUGAUUAAUAUGAUAUCGUUCUUUCUUGUACUUUGUUCUUUCUCGAUAUCAUAUUAAUCUUU
Which Kd does the source give for B14 here?
The Kd was 13.1 nM.

B15: Ic_S2_P4E.1_K4.1_C4.1_H4.1_A4.1_[T5C]_[T7A]_F4.1_[T8C]_[A9C]_T4.1 (ssRNA)
RNA: UUUGAUUAAUAUGAUAUCGUUCUUUCUUGUACAACCUUCUUUCUCGAUAUCAUAUUAAUCUUU
With B15 as the binder, how does the Kd read?
The Kd was 87.7 nM.

B16: Ic_S2_P4E.1_K4.1_C4.1_H4.1_A4.1_[T5C]_[T7C]_F4.1_[T8A]_T4.1 (ssRNA)
RNA: UUUGAUUAAUAUGAUAUCGUUCUUUCUUGUACACAAUUCUUUCUCGAUAUCAUAUUAAUCUUU
B16 was tested. Which Kd did it give?
The Kd was 13.8 nM.

B17: Ic_S2_P4E.1_K4.1_C4.1_H4.1_A4.1_[T5C]_[T7A]_F4.1_[T8C]_T4.1 (ssRNA)
RNA: UUUGAUUAAUAUGAUAUCGUUCUUUCUUGUACAACAUUCUUUCUCGAUAUCAUAUUAAUCUUU
Which Kd does the source give for B17 here?
The Kd was 17.4 nM.

B18: Ic_S2_P4E.1_K4.1_C4.1_H4.1_A4.1_[T5C]_[A6T]_F4.1_[T8G]_[A9T]_T4.1 (ssRNA)
RNA: UUUGAUUAAUAUGAUAUCGUUCUUUCUUGUACUUGUUUCUUUCUCGAUAUCAUAUUAAUCUUU
For B18, which Kd is on record?
Its Kd is 72.9 nM.

B19: Ic_S2_P4E.1_K4.1_C4.1_H4.1_A4.1_[T5C]_F4.1_[T8C]_[A9C]_T4.1 (ssRNA)
RNA: UUUGAUUAAUAUGAUAUCGUUCUUUCUUGUACAUCCUUCUUUCUCGAUAUCAUAUUAAUCUUU
B19 was tested. Which Kd did it give?
The Kd was 12.3 nM.

B20: Ic_S2_P4E.1_K4.1_C4.1_H4.1_A4.1_[T5A]_[A6C]_[T7G]_F4.1_[T8C]_[A9C]_T4.1 (ssRNA)
RNA: UUUGAUUAAUAUGAUAUCGUUCUUUCUUGUAACGCCUUCUUUCUCGAUAUCAUAUUAAUCUUU
With B20 as the binder, how does the Kd read?
The Kd was 851 nM.

B21: Ic_S2_P4E.1_K4.1_C4.1_H4.1_A4.1_[T5C]_[A6T]_F4.1_[T8A]_[A9G]_T4.1 (ssRNA)
RNA: UUUGAUUAAUAUGAUAUCGUUCUUUCUUGUACUUAGUUCUUUCUCGAUAUCAUAUUAAUCUUU
B21 was tested. Which Kd did it give?
Its Kd is 141 nM.

B22: Ic_S1_P3E.1_K3.1_C3.1_H3.1_A3.1_[T5C]_[A6G]_F3.1_T3.1 (ssRNA)
RNA: UCUCUUUGUACGUAUCUCUU
With B22 as the binder, how does the Kd read?
The Kd was 149 nM.

B23: Ib_S1_P3E.1_K3.1_C3.1_H3.1_A3.1_[T5C]_[A6C]_F3.1_T3.1 (ssRNA)
RNA: UCUCUUUGUACCUAUCUCUU
B23 was tested. Which Kd did it give?
Its Kd is 86.7 nM.
